One block for each binder: values may come before it.
Legend:
[1] = biological target: murine LAP-TGFβ1 overexpressed on cells (mouse, UniProt P04202 30-390); assay: cell-based or functional assay
[2] = biological target: T1, human LAP-TGFβ1 overexpressed on cells (human, UniProt P01137 30-390); assay: cell-based or functional assay
LAP-TGFβ1 on U937 cells [3] = biological target: T2, LAP-TGFβ1 on U937 cells (Homo sapiens, UniProt P01137); assay: flow cytometry, U937 cells, Alexa 647 antibody, % LAP+ cells
T2 construct: cell surface, endogenous; also called LAP+ U937 cells
T2 sequence (P01137 30-390 limits assumed): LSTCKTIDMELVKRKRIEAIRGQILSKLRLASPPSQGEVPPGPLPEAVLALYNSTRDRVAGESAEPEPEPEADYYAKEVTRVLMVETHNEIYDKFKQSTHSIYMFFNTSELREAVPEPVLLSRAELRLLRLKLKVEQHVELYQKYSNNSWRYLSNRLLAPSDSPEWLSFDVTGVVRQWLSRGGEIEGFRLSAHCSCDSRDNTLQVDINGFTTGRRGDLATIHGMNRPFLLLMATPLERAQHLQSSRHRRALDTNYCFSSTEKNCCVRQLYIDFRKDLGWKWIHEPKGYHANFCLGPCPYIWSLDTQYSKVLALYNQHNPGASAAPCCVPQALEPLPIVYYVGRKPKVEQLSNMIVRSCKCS
Method: (§1) Anti-LAP antibodies were tested for their ability to bind to U937 cells, a myeloid cell line derived from a patient with histiocytic lymphoma. U937 cells were incubated with FACS buffer and human Fc block followed by incubation with varying concentrations of Alexa 647 conjugated 28G11_hyb, 22F9_mIgG2a, or 20E6_mIgG2a. In a separate experiment U937 cells were incubated with FACS buffer and human Fc block followed by incubation with 10 ug/ml of Alexa 647 conjugated 28G11_hyb, 22F9_mIgG2a, 20E6_mIgG2a or mIgG2a isotype control (FIGS. 10E and 10F). Representative dot plots are shown in FIG. 10G; in these plots, antibodies were at 10 ug/ml.

LAP-TGFβ1 on U937 cells [4] = biological target: T2, LAP-TGFβ1 on U937 cells; assay: flow cytometry dot plot against GARP, U937 cells, Alexa 647 antibody at 10 ug/ml
Method: as §1

[5] = biological target: T3, human LAP-TGFβ3 overexpressed on HT1080 cells (human, UniProt P10600 24-412); assay: flow cytometry titration, HT1080-huB3 cells
T3 construct: also called HT1080-huB3
T3 sequence: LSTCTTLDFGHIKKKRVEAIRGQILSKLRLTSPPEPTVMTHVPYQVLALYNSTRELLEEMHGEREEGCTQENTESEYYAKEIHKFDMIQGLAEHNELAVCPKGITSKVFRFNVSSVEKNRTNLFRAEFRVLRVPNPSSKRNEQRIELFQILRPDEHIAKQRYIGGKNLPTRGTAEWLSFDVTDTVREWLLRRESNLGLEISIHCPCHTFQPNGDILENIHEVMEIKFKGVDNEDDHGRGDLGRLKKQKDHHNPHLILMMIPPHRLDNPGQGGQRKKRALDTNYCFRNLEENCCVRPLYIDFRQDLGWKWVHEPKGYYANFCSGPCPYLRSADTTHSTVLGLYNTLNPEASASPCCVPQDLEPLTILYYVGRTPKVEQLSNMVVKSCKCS
Method: (§2) This Example describes the binding of anti-LAP antibodies to LAP-TGFβ isoforms and LAP-TGFβ variants. In addition to antibodies 28G11_hIgG1, 22F9_hIgG1, and 20E6_hIgG1, anti-LAP antibodies 17G8_hIgG1, 24E3_hIgG1, and 2C9_(hyb) were also tested in this experiment. Briefly, 4×10⁵ each of (a) HT1080 cells, (b) HT1080 cells overexpressing human LAP-TGFβ1, (c) HT1080 cells overexpressing human LAP-TGFβ2, (d) HT1080 cells overexpressing human LAP-TGFβ3, (e) HT1080 cells overexpressing murine LAP-TGFβ1, (f) P3U1 cells, (g) P3U1 cells overexpressing LAP-TGFβ1 and GARP, and (h) P3U1 cells overexpressing LAP-TGFβ1 and LRRC33 were cultured in 96-well plates. The plates were centrifuged for 5 min at 1,500 rpm, liquid was removed, and cells were resuspended with 200 μL FACS buffer. The plates were centrifuged again, diluted primary antibody was added to each well, and the plates were incubated on ice for 20 minutes, followed by centrifugation. The cells were resuspended in 200 μL FACS buffer, centrifuged again, and resuspended in 50 μL diluted secondary antibody (Alexa647-anti-Human IgG or APC-anti-Mouse IgG). The plates were incubated on ice for 20 minutes in the dark, washed twice with 200 μL FACS buffer, and cells from each well (in 200 μL FACS buffer) were read on the Attune NXT instrument.

[6] = biological target: T4, murine LAP-TGFβ1 with a C-terminal polyhistidine purification tag (mouse, UniProt P04202 30-390); assay: BLI, antibody on tip, 1:1 model
T4 construct: also called Mouse LAP-TGFβ1
T4 sequence (P04202 30-390 limits assumed): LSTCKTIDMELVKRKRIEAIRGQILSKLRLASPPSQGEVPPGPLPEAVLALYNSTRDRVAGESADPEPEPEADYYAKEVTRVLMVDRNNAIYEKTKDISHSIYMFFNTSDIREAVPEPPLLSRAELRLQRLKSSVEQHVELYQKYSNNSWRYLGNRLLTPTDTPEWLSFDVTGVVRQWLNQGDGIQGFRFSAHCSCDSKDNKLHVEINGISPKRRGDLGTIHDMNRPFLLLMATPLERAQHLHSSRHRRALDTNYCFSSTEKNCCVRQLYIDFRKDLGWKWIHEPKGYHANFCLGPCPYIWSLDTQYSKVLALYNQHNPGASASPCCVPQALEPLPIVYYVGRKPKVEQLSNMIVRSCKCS
Method: (§3) The chimeric antibodies were biotinylated using EZ-Link SulfoNHS-LC-Biotin (ThermoFisher). A streptavidin-functionalized tip was equilibrated in binding buffer (10 mM sodium phosphate, 150 mM sodium chloride, 1% (w/v) bovine serum albumin, 0.05% (w/v) sodium azide, pH 7.4). The tip was dipped in a 10 μg/mL solution of biotinylated, chimeric anti-LAP in binding buffer for 15 seconds to load the tip with antibody. The antibody-loaded tip was then washed in binding buffer and placed in a solution containing 0-24 nM of LAP-TGFβ1 (either a fusion protein containing a human IgG1 Fc domain fused to human LAP-TGFβ1 or a murine LAP-TGFβ1 with a C-terminal polyhistidine purification tag). The antigen was allowed to bind to antibody for 5 minutes (association phase), and then the tip was moved to binding buffer (dissociation phase). The association and dissociation phases were fit to a 1:1 binding model to determine the binding rate constants.

[7] = biological target: T5, fusion protein of a human IgG1 Fc domain and human LAP-TGFβ1 (human, UniProt P01137 30-390); assay: BLI, antibody on tip, 1:1 model
T5 construct: printed both as Fc-huB1 and LAP-TGFβ-Fc; also called Fc-huB1; Fc-human LAP
T5 sequence (P01137 30-390 limits assumed): as the sequence (P01137 30-390 limits assumed) above
Method: as §3

[8] = biological target: T6, human-chicken LAP-TGFβ1 chimera #2.2 on HT1080 cells (human/chicken chimera, UniProt P01137 30-390); assay: flow cytometry, HT1080 cells; grey bar = no anti-LAP antibody
T6 construct: also called HT1080-ch2.2
T6 sequence (P01137 other isoform, or with tags, fused parts or gaps mutant): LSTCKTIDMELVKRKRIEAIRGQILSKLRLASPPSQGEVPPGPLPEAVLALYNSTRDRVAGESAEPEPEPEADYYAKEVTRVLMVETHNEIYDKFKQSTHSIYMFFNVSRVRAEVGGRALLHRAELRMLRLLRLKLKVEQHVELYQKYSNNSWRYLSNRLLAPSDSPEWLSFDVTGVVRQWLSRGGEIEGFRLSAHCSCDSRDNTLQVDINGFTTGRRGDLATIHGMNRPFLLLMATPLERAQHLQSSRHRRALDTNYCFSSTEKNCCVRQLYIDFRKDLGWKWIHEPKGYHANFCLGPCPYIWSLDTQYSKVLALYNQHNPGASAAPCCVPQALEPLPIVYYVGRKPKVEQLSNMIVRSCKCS
Method: as §2
(§4) Cells were processed for flow cytometry in the same manner described above for the isoform-specific binding experiments.

[9] = biological target: T7, LAP-only variant of human TGFβ1 (empty LAP) on HT1080 cells (human, UniProt P01137 30-277); assay: as above
T7 construct: LAP without the mature cytokine; also called HT1080-emptyLAP; LAP-only construct
T7 sequence (P01137 30-277, change not shown): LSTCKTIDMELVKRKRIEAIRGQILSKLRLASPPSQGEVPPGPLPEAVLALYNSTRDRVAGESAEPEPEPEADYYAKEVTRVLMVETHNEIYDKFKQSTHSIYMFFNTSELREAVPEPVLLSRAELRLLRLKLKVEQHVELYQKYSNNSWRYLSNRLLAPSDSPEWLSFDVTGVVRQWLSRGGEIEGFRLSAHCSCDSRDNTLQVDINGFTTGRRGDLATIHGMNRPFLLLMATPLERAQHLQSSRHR
Method: as §2, §4

[10] = biological target: T8, human LAP-TGFβ1 with a Y74T mutation on HT1080 cells (human, UniProt P01137 30-390); assay: as above
T8 construct: also called HT1080-Y74T; open conformation
T8 sequence (P01137 other isoform, or with tags, fused parts or gaps Y74T Y74T): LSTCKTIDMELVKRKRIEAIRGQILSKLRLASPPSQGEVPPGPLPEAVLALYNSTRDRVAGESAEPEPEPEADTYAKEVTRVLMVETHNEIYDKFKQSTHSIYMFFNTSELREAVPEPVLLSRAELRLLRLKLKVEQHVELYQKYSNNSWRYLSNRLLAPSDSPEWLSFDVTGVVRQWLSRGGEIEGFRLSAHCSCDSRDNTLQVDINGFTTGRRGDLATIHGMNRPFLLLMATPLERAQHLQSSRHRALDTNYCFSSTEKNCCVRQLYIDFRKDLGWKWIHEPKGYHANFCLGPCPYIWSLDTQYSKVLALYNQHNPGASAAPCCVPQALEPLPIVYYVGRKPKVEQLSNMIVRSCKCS
Method: as §2, §4

[11] = biological target: T9, human LAP-TGFβ1 with K27C and Y75C mutations on HT1080 cells (human, UniProt P01137 30-390); assay: as above
T9 construct: also called closed conformation
T9 sequence (P01137 other isoform, or with tags, fused parts or gaps K27C Y75C K27C Y75C): as the sequence (P01137 other isoform, or with tags, fused parts or gaps Y74T Y74T) above, with K27C, T74Y, Y75C counted along it
Method: as §2, §4

[12] = biological target: T10, mature human TGFβ1 (free TGFβ1, without LAP) (human, UniProt P01137 279-390); assay: TGFβ1 ELISA after pre-incubation of 1000 pg mature TGFβ1 with antibody; loss of signal reflects binding
T10 construct: also called mature TGFβ; free human TGFβ1
T10 sequence (P01137 279-390 limits assumed): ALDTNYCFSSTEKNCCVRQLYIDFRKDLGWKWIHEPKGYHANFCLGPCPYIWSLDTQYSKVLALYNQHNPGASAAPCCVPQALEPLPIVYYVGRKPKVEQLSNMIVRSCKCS
Method: To determine whether anti-LAP antibodies 28G11_hIgG1, 22F9_hIgG1, 20E6_hIgG1, 17G8_hIgG1, and 24E3_hIgG1, bind to free human TGFβ1 (i.e., mature TGFβ1 that lacks LAP), the ability of the antibodies to inhibit an anti-TGFβ ELISA was evaluated. Briefly, mature TGFβ1 (1000 pg) was incubated with the indicated anti-LAP antibodies at 10 μg/mL, an isotype control antibody as a negative control or the commercially available anti-TGFβ antibody 1D11 as a positive control for 10 minutes on ice. For example, the 1D11 antibody is commercially available from any number of sellers, for example Bio x Cell Inc. (West Lebanon, N.H.). Supernatants were assayed in a TGFβ1 ELISA (R&D Systems) according to the manufacturer instructions to measure free TGFβ1. […] Note that Figure and FIG. are used interchangeably in this application.

[13] = biological target: T1, human LAP-TGFβ1 overexpressed on cells; assay: cell-based or functional assay; remark: listed apart in the source
[14] = biological target: T11, human LAP-TGFβ2 overexpressed on HT1080 cells (human, UniProt P61812 21-414); assay: flow cytometry titration, HT1080-huB2 cells
T11 construct: also called HT1080-huB2
T11 sequence: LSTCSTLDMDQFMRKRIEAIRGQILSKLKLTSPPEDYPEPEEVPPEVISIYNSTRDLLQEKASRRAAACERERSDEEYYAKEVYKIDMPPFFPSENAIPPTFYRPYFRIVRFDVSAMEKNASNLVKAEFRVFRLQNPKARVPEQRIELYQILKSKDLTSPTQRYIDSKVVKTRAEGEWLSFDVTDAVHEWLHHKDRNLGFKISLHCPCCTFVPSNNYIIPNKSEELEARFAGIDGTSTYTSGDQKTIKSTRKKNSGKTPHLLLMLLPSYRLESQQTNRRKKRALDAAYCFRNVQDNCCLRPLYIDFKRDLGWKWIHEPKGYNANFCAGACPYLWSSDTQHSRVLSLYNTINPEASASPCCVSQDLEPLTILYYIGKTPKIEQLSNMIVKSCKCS
Method: as §2

[15] = biological target: T1, human LAP-TGFβ1 overexpressed on cells; assay: flow cytometry; legend box on the sheet: black HT1080-null, grey HT1080-huB1

T1 sequence (P01137 30-390): as the sequence (P01137 30-390 limits assumed) above
murine LAP-TGFβ1 overexpressed on cells, sequence (P04202 30-390): as the sequence (P04202 30-390 limits assumed) above

IC50 of inhibition of TGFβ1 activation [1]: 1 µg/mL
IC50 of inhibition of TGFβ1 activation [2]: 1.8 µg/mL
EC50 (read off the curve) (LAP-TGFβ1 on U937 cells [3]): ~20 µg/mL
% of cells in Q1 (antibody axis positive, GARP negative) (LAP-TGFβ1 on U937 cells [4]): 43.8%
% of cells in Q2 (antibody axis positive, GARP positive) (LAP-TGFβ1 on U937 cells [4]): 0.44%
B1: 22F9_mIgG2a (antibody, V domains shown)
VH: QVQLQQPGAELVKPGASVKLSCKASGYTFTSYWMHWVKQRPGQGLEWIGMIHPNSGSTNYNEKFKSKATLTVDKSSSTAYMQLSSLTSEDSAVYYCAYYDYDGFFDVWGTGTTVTVSS
VL: DIVLTQSPASLDVSLGQRATISCRASKSVSTSGYSYMHWYQQKSGQPPKLLIYLASNLESGVPARFSGSGSGTHFTLNIHPVEEEDAATYYCQHSRELPYTFGGGTKLEIK
notes: also called 22F9_IgG2a

IC50 of inhibition of TGFβ1 activation (ELISA of active TGFβ1) [1]: 1 µg/mL
IC50 of inhibition of TGFβ1 activation (ELISA of active TGFβ1) [2]: 1.4 µg/mL
binding result [5]: no binding (tested: about 800 ng/well)
Kd [6]: 0.19 nM
koff [6]: 0.000158 s⁻¹
kon [6]: 840000 M⁻¹ s⁻¹
Kd [7]: 0.67 nM
koff [7]: 0.00036 s⁻¹
kon [7]: 540000 M⁻¹ s⁻¹
binding result [8]: no binding
binding result [9]: no binding
binding result [10]: no binding
binding result [11]: binds
binding result [12]: no binding (tested: 10 µg/mL)
Inhibition of human TGFβ1 activation (IC50) [13]: 2.3 µg/mL
binding result [14]: no binding (tested: about 800 ng/well)
B2: 28G11_hIgG1 (antibody, V domains shown)
VH: EVKLVESGGGLVQPGGSLSLSCAASGFTFTDYYMSWVRQPPGKALEWLGFIRNKPNGYTTEYSASVKGRFTISRDNSQSILYLQMNVLRAEDSATYYCARYTGGGYFDYWGQGTTLTVSS
VL: DIQMTQTTSSLSASLGDRLTISCRASQDISNYLNWYQQKPDGTVKLLIYYTSRLHSGVPSRFSGSGSGTDYSLTISNLEQADIATYFCQQGDTLPWTFGGGTKLEIK

binding result [15]: binds
B3: 28G11_H2.1L3 (antibody, human IgG1, kappa, V domains shown)
VH: EVQLVESGGGLVQPGGSLRLSCAASGFTFTDYYMSWVRQAPGKGLEWLGFIRNKPQGYTTEYSASVKGRFTISRDNSQSSLYLQMNSLKTEDTAVYYCARYTGGGYFDYWGQGTLLTVSS
VL: DIQMTQSPSSLSASVGDRLTISCRASQDISNYLNWYQQKPGKTVKLLIYYTSRLHSGVPSRFSGSGSGTDYTLTISSLQPEDVATYFCQQGDTLPWTFGQGTKLEIKR

binding result [15]: binds
B4: 28G11_H2aL3a (antibody, human IgG1, kappa, V domains shown)
VH: EVQLVESGGGLVQPGGSLRLSCAASGFTFTDYYMSWVRQAPGKGLEWVGFIRNKPNGYTTEYSASVKGRFTISRDNSKNSLYLQMNSLKTEDTAVYYCARYTGGGYFDYWGQGTLVTVSS
VL: DIQMTQSPSSLSASVGDRLTISCRASQDISNYLNWYQQKPGKVVKLLIYYTSRLHSGVPSRFSGSGSGTDYTLTISSLQPEDVATYYCQQGDTLPWTFGQGTKLEIKR

From patent US20220017612A1 (TILOS THERAPEUTICS, published 2022)
